Experimental data: publication PMC5818740 (2018)
Ends that are not written are not given here.

Target: PICK PDZ-BAR construct
Test: FP

Sequence of PICK PDZ-BAR construct (chain, as listed by the source): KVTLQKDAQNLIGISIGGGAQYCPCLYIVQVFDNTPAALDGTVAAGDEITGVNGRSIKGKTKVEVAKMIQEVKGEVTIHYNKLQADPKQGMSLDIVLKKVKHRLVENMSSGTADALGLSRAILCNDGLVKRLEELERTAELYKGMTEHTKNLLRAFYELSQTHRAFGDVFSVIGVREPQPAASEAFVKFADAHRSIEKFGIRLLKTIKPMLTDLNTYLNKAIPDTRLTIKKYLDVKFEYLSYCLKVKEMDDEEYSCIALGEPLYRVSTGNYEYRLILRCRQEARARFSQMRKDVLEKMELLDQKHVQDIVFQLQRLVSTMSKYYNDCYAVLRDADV

IC50: 15.3 µM
Binder: VYGIESVKI-OH [GluR2 peptide (competitor in the fluorescence polarization assay)]
